Test: label from the status in PepcDB records

Sequence | protein production
MSDIVLEVQSLHVYYGAIHAIKGIDLKVPRGQIVTLIGANGAGKTTTLSAIAGLVRAQKGKIIFNGQDITNKPAHVINRMGIALVPEGRRIFPELTVYENLMMGAYNRKDKEGIKRDLEWIFSLFPRLKERLKQLGGTLSGGEQQMLAIGRALMSRPKLLMMDEPSLGLAPILVSEVFEVIQKINQEGTTILLVEQNALGALKVAHYGYVLETGQIVLEGKASELLDNEMVRKAYLGVA | not failed
MSDLEVQVPTAFDPFADANAEDSGAGTKEYVHIRVQQRNGRKSLTTVQGLKKEYSYSKILKDLKKEFCCNGTVVQDSELGQVIQLQGDQRKNVSTFLVQAGLVKKDNIKIHGF | failed
MSDLGAYIHAVETASSASALREAVIQLAQQNSTAAIPTLIAVLGYNNPAAAQAAVEGLIALGDAVVEPLLAQLDGYNYGARAYGVRVLGSIGHPAALQVLLAAAQSDFAPSVRRAATKALGTLRWQLIPEETVREAQLKEALAVLQRNSKAADWAVRYAVGVALDYLHQQAAARGIREAVRSLLNHLSDRDPDIVVRSRCQLALQRDSLSMHT | failed
MSDNSKTRVVVGMSGGVDSSVTALLLKEQGYDVIGIFMKNWDDTDENGVCTATEDYKDVVAVADQIGIPYYSVNFEKEYWDRVFEYFLAEYRAGRTPNPDVMCNKEIKFKAFLDYAITLGADYVATGHYARVARDEDGTVHMLRGVDNGKDQTYFLSQLSQEQLQKTMFPLGHLEKPEVRRLAEEAGLSTAKKKDSTGICFIGEKNFKNFLSNYLPAQPGRMMTVDGRDMGEHAGLMYYTIGQRGGLGIGGQHGGDNAPWFVVGKDLSKNILYVGQGFYHDSLMSTSLEASQVHFTREMPEEFTLECTAKFRYRQPDSKVTVHVKGEKTEVIFAEPQRAITPGQAVVFYDGEECLGGGLIDNAYRDGQVCQYI | not failed
MSDSLHTPEEPRPGPGEQLAHAHDGSLRHTRAKGEPRFPDGPKADPAGSHFERRIRSFQPRRSRVTAGQADALQRLWPKWGLDIDGHALDLTELFGNTHPVVLEIGFGMGEATARMAAEDPDTGILAVDVHTPGQGNLLNLADQHGLTNIRVANGDAIILLREMLPPDSLDGLRVYFPDPWPKKRHHKRRLIQPEFLTLAATRLRPGALVHCATDWEPYAEQMLDVLTAHPDFENTQPTGGYAPRPGFRPLTRFEGQGLDKGHVVNDLLFRRVQPRDQHRDLPPSATEAD | failed
MSDSWTERWNDRYSNEIFAYGEKPNNYLKAQLENLQPGTILFAAEGEGRNAVFAACLGWDVQAFDISSEGKKKAFQLAEKNQVTIAYQVGQLETLGYTAGQFDALALIYAHFPATVKSAYHRILSSYVRSGGYIIFEAFSKKHLDYLAKNEQVGGPKEFDMLFSIEEIKADFPDYEILELEEKEIELNEGQFHNGTGSVIRFTGRKKLEHHHHHH | failed
MSDTPYSLKGPARPTASTRNGKGRQDARWAERRREAAIAKLKAELAAQAALIAGQEVALAHSRKIFDRASVAARIGVWECSLPGEQLHWTDVVYDLFDLPRGAALDRSEIIKCYPAESRKALDSLRSRAIAERSGFTLDAEITTFAGHSRWIRITATVECEADVPVRIFGMKQDITEEKILSDRMRYLAEFDPMTGLANRARFQARLAQPDASRPLGALLLIDLDGFKAVNDTFGHVVGDECLKAAAERLAEGCGEADLVARVGGDEFAVLLGSHLDRAAVSGVAREIIEGMGKPVVVRGQSLRLGASVGIAFAGQGAPCDLFAQADTALYAAKAAGRNTFRIFKAEAGGKDRSAAA | failed
MSDWPPKPQNEVQNSNNKTGQEWQILEKAVLASVEEQRRTRRWGIFFKFLTFLYLLFVFVLLGRGCTTSESSGGTSSSTAHLAVVNIIGTIDSSNQSVNSEDTNKALERAFEAKNSKAVALNINSPGGSPVQSDEIWQEIRYLKKQHPDKKVYAVIGDMGASGAYYIASAADEIIVNPSSLVGSIGVIMPNYGITGLAQKLGIEDRTLTSGSNKDILSMTKPVNPAQREHIQSVLDNVHAHFINAVKEGRGTRLKSNDPAIFSGLFWTGEQAIQLGVADRTGNLDTLMRELKVENKVNYTIERSPFESILGKMGSELGQGISQSVSQQLKTEQQAKLQ | failed
MSDWQMAEAWTLEEAIANIQQTEDTGKRYYAAWWFGKFRVQDERAVNALLAALKDETDRSPDGGYPLRRNAAKALGKLGNLAAVQPLIESLESPDYYVRESAAQSLEMLGDRQAIPALQALLAGGVAAAVKAEGKPHLVQPYEAVIEALGTIGATAAIAEIEPFLDHEFAKIRYAALRALYQLTQEAHYAEQLMEALNGNQLQLRRSALLDLGAIGYVPAGQAIAKAYAENSLKLISLKGILESHLQRTAETLDADGLQLLELMDSLL | failed
MSEDKDMKNRNAMTIKRFVDVEEDGEHGGSGEFAELFQESIKQHRVGEVVTGKVVHISNEFVLVDIGYKSEGCIAIDEFLDEDGNLTVKVGDEVKALFERKENQKGYAVLSRRKAERLAVWDVIDEAGGEGGIIEGKITGKVKGGLTVDIGVQAFLPASQVDLRPGGNLDKYIGTTDRFKVLKLNKKRGNIVLSRRVLMEEERESSRKETLATLAEGQVREGVVKNITDYGAFVDIGGVDGLLHVTDMSWGRLGHPSEILKPGDKLNVKVLKYDQEKGKISLGLKQVTPDPWVSVEQKYNQGDRVKGKVVSLTDYGAFIALEDGVEGLVHVSEMSWTRRLRHPSEILTVGDEVETVVLGVDMGNRRISLGLKQVQVNPWTQLEEKYPVGTKLEGQIKSITDFGVFIGIEEGIDGLVHVSDISWTKRIKHPGEVFTKGQTVQAVVLNIDPENERLSLGIKQLLLDPWSEIPVKYRPGTRVHGKVTSVTDFGVFLEIEEGIEGLIHVSELSREKVASPKEFTNVGDELDAVVLSVDESEKKIALSIKSLQMAAEKAEIESYMQAQGEATSNLGELLKVGFRKNGDGNDLEHHHHHH | failed
MSEENKIGTYQFVAEPFHVDFNGRLTMGVLGNHLLNCAGFHASDRGFGIATLNEDNYTWVLSRLAIELDEMPYQYEKFSVQTWVENVYRLFTDRNFAVIDKDGKKIGYARSVWAMINLNTRKPADLLALHGGSIVDYICDEPCPIEKPSRIKVTSNQPVATLTAKYSDIDINGHVNSIRYIEHILDLFPIELYQTKRIRRFEMAYVAESYFGDELSFFCDEVSENEFHVEVKKNGSEVVCRSKVIFE | not failed
MSEENRAVVSRMTEEDVRQLIKRKDDIEEQIKAYYDMLESQAGVGMDGPLVDVEGFPRADVDLYKVRTARHSISCLQNDHKAIMVEIEEALHKLHATARVTHEQDDTQMESSGQTVETPPPFALVDAVTHGSPAAQAGLHVGDQIMEFGSVNTQNFRNLRDIASVVQHSEGKSLRVGVFRNGQEVHLNLTPQQWSGRGLLGCNIVPLHR | failed
MSEIEELVCIEASVTRKSTSNTVEIRESRRNKVTLGSSDSPAFPTPHLFLKNIVSFDEQSMYNLLYPRLQDPNLCSILSFKIAFEAKRVPGPLYISYDVTLTPQIFEEPDMETCGLCLLEEQHLFDMPNCAHVFHGDCIDKWLSTSNNCPLCGVEIMDDDE | failed
MSEIILVTGAAGQLGQRVIHHLIETYKVAPGNIVAATRSPEKLSELEKKGVVTRKADFDDAAGLEKAFAGVDRLLIISTDALDTPGKRLAQHKGAVAAAVKSGVKHIAYTSMPGPDNSLVTFAPDHLGSENAIKASGIAHTIIRDAWYHDNYLHGMPHNLQGGKWYSATGDGKISTISRDDCALAIAAALASGTSESATYTVTGTQSLNSRQIAAIVSDVAGKPLEVIDVTDEQLGQGMRGAGLPGFVADMLVSADANTRAGKFDIVTEDFTKLTGKQPQPLKDFFVEHKATLTA | failed
MSEILRQPSVLLFLTLAVYALAIIVRTRTGNIFCNPVLVSTIVLIAYLKILGIDYAVYHNAAQFIDFRLKPAVVVLAVPLYQNRRKIFNQWLPVIVSQLAGSVTGIVTGMYFAKWLGAEREVVLPLASKSVTNPIAIEITRSIGGIPAITAATVIIAGLVGQIAGYKMLKNTVVMPSSVGMSLGTASHAMGIAASLERSRRMAAYAGMGLTFNGVLTALIAPLLIPVLGF | failed
MSEKDFVQVAKLGKTVGLKGYVKLHNLSDFSSQFKKDATFFIKNTKEMLKIKHYNANNSTVLFENYEDIEKAKELTNLILFQSIEKSRQTCKLKKDEFFYFDILECEVFEEDKRLGKVVDILETGASYLFEIQSDEKWVEKKYPKIFFIPYLDKFVKNIDIEKRQIFCTQDAFLILENSLEHHHHHH | not failed
MSELILVRHGQATPFEKATDRLSALGEQQARAVGAALTAQGVRPTHVLHGSLVRQRRTAELAGEGQTGNEPGWPAPTLDPRLSEFDGDGLVTTLAPLLAQQDAEFGTLATTFREHRDSPERNRHFQRMLEALAAAWQAGTVTHPEVEGWADFRARVRAGLGDVLRLPAGTTAVLFTSGGVIGLAVALALDAPDASALKLNWRVKNGSLTRFTFGGGRLSLDSFNEEGHLTPELRSWR | failed
MSELPPREQPPRDQAISVAAISPERPDNHENDWTRRLVLFLRVMAVLSVAKGLYHWAQITGFVGGEDDAFEVQTMAWQTATIYFAVIELVAAVGLWLATPWGAVVWLTTVVSMAVIELMFPAIYGGSLLVVLGEALLLAAYLALAWMAARERPP | failed
MSELRILRAVDYPRMPWKNGAGSTEEIARDGGDGLDGFGWRLSIADVGESGGFSGFAGYQRIISVLEGGGMRLRVDGAESAPLRARQAFAFSGDSEVHCTLLDGAIRDFNLIYAPRRHRARLQWLRVEGELDWHGTASTLLLFAQQDGVAISLQGQPRGQLAAHDCLCAEGLQGLQHWRLTAHEPAWVCAVELDSL | not failed
MSELVINNNIVNDLLIKQFTNYVFMMIVTDIKGNIIYANKKYCQFNHINFESIKNKRYNLFYLVDENQDVFSNISDNKEVIRLEAKNPNKNKQEVWEDINIVPIFDKNNLISHYAFLSLDITD | failed
MSEPKKHKDAAVDDRAVQPSRRNFLKFGASGIAAATLSTWIPSDGMLQAAPVAPVLPVVEDRDAPAAGEHRIQLKVNGQVHTLNVPANAVLLDVLRDRLQLTGTKKGCDHGQCGACTLLVNGVAINSCLSIAVQHQGDSITTIEGLAENGKLHPVQEAFWEHDAYQCGYCTSGQIMSAVAILKDPNLGSDDASVREAMSGNICRCGAYKNILSAVQSARSKMGAV | failed
MSEQNWTDTGRFDNKAAEWDANAIRAALADAVARAIIAHMPVGKPANALEFGCGTGLVTTRIAPHCLQLTAVDSSREMLRMLGEKIAASAIANVTPLHLDFSRPEEAAGLDRDYDFVYSSMTLHHIPDTASFLRELIGHMSPGGALAIADLDAEDGLFHNDATEKVHHGFDRTELQALLESAGFAGVSFMTAHIIEKKNREGNLKNYPVFLVTAVKPKA | failed
MSESAKVWLVTGASSGFGRAIAEAAVAAGDTVIGTARRTEALDDLVAAYPDRAEAISLDVTDGERIDVVAADVLARYGRVDVLVNNAGRTQVGAFEETTERELRDLFELHVFGPARLTRALLPQMRERGSGSVVNISSFGGQLSFAGFSAYSATKAALEQLSEGLADEVAPFGIKVLIVEPGAFRTNLFGKGAAYFSEENPAYAEKVGPTRQLVQGSDGSQPGDPAKAAAAIRLALDAEKTPLRLALGGDAVDFLTGHLDSVRAELTEWEKVSRGTDFDTE | not failed
MSESIVTKIISIVQERQNMDDGAPVKTRDIADAAGLSIYQVRLYLEQLHDVGVLEKVNAGKGVPGLWRLLLEHHHHHH | not failed

Reference: a protein production outcome set (Wang et al. 2014)
